Patent US20190002404

Tested on: purified, Flag-tagged recombinant PGAM1 (rPGAM1)

Substance	in vitro kinase assay (Y26 phosphorylation)	in vitro kinase assay (tyrosine phosphorylation)
FLT3	FGFR1 (FIG. 13B), JAK2 (FIG. 13C) and FLT3 (data not shown) directly phosphorylated PGAM1 at Y26 in vitro	
active, recombinant FGFR1 (rFGFR1)	FGFR1 (FIG. 13B), JAK2 (FIG. 13C) and FLT3 (data not shown) directly phosphorylated PGAM1 at Y26 in vitro	active, recombinant FGFR1 (rFGFR1) directly phosphorylated purified, Flag-tagged recombinant PGAM1 (rPGAM1) at tyrosine residues
active, recombinant JAK2 (rJAK2)	FGFR1 (FIG. 13B), JAK2 (FIG. 13C) and FLT3 (data not shown) directly phosphorylated PGAM1 at Y26 in vitro	
